This note sets out measurements from paper PMC11042868.

The target of data set [1] is HER2 on SK-BR-3 cells (Homo sapiens) (UniProt P04626). Put plainly: cell binding, NIR fluorescence. The conditions noted are these: live cells, 5% FBS, 1 h, live adherent cells (1e4/well), 0.01-10 uM 5'-IRD800 aptamer in growth medium with 5% FBS, 37 C (or 4 C), buffer salt and pH not stated.
Data set [2] deals with HER2 on MDA-MB-453 cells (Homo sapiens) (UniProt P04626). The data set is described as follows: cell binding, NIR fluorescence. The conditions noted are these: live cells, 5% FBS, 1 h, live adherent cells (1e4/well), 0.01-10 uM 5'-IRD800 aptamer in growth medium with 5% FBS, 37 C (or 4 C), buffer salt and pH not stated.

pKd: −log10 of the molar value.

The pKd is −log10 of the Kd, conventionally taken in molar units. For “CCGCCCAAACACACGTAAACAGATGAGGAGCCGACACTGGG [HMAP7 (M7)]”, the pKd in data set [1] is 6.46; in data set [2], 6.59.
